# From article PMC4534575, “The RNA Helicase DHX34 Activates NMD by Promoting a Transition from the Surveillance to the Decay-Inducing Complex” (Cell Reports, 2014)
# T1: T7-DHX34 (wild-type) (human, UniProt Q14147 1-1143)
# T1 construct: Human DHX34, wild type; also called T7-tagged DHX34; shRNA-resistant (R) wild-type T7-DHX34; source: HEK293T, transiently transfected, in lysate; also purified on T7 agarose beads
# T1 sequence (looked up): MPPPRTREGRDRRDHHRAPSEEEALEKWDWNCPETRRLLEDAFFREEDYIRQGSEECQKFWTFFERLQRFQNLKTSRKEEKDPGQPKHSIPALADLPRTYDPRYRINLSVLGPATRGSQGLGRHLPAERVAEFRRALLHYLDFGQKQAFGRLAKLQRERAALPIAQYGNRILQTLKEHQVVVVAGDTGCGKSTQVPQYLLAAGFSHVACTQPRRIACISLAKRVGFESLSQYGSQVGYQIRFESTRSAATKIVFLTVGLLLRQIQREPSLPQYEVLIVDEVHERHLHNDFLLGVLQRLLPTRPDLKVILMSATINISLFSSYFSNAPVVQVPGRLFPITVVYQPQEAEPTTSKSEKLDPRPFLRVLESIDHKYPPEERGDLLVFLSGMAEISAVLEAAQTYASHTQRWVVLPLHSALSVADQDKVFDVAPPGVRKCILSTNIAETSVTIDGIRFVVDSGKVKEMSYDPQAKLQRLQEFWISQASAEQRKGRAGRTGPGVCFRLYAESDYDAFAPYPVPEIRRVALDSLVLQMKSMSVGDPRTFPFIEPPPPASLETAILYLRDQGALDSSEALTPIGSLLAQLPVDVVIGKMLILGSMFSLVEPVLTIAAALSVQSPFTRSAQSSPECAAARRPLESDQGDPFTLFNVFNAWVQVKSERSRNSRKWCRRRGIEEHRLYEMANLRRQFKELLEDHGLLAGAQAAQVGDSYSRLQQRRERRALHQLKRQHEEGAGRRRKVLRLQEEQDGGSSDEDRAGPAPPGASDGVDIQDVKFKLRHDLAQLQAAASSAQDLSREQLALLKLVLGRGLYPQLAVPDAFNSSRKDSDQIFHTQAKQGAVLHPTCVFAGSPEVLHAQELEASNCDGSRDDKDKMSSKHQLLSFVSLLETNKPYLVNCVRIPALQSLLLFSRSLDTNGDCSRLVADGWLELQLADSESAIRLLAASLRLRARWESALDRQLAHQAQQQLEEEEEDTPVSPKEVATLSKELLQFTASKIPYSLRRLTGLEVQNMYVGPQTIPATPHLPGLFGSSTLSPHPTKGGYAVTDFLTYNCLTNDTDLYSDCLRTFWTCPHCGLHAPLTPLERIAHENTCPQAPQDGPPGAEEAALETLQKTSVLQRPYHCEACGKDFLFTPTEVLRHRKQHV
# Molecular target: T1, T7-DHX34 (wild-type)
# Test: pull-down; purified T7-DHX34 (wild-type or deletion constructs) on T7 agarose beads incubated with recombinant UPF1, UPF2, UPF3b or purified full-length FLAG-UPF1 in buffer D for 2 hr at 4°C
# Conditions: both partners purified
binder,measurement,value
"FLAG-UPF1 (wild-type) (natural protein, human, UniProt Q92900-2 1-1118, looked up, UPF1, human, full length; Plasmid named pcDNA3 x FLAG-UPF1 in the methods; also called purified full-length FLAG-UPF1; source: HEK293T, transiently transfected, in lysate) MSVEAYGPSSQTLTFLDTEEAELLGADTQGSEFEFTDFTLPSQTQTPPGGPGGPGGGGAGGPGGAGAGAAAGQLDAQVGPEGILQNGAVDDSVAKTSQLLAELNFEEDEEDTYYTKDLPIHACSYCGIHDPACVVYCNTSKKWFCNGRGNTSGSHIVNHLVRAKCKEVTLHKDGPLGETVLECYNCGCRNVFLLGFIPAKADSVVVLLCRQPCASQSSLKDINWDSSQWQPLIQDRCFLSWLVKIPSEQEQLRARQITAQQINKLEELWKENPSATLEDLEKPGVDEEPQHVLLRYEDAYQYQNIFGPLVKLEADYDKKLKESQTQDNITVRWDLGLNKKRIAYFTLPKTDSDMRLMQGDEICLRYKGDLAPLWKGIGHVIKVPDNYGDEIAIELRSSVGAPVEVTHNFQVDFVWKSTSFDRMQSALKTFAVDETSVSGYIYHKLLGHEVEDVIIKCQLPKRFTAQGLPDLNHSQVYAVKTVLQRPLSLIQGPPGTGKTVTSATIVYHLARQGNGPVLVCAPSNIAVDQLTEKIHQTGLKVVRLCAKSREAIDSPVSFLALHNQIRNMDSMPELQKLQQLKDETGELSSADEKRYRALKRTAERELLMNADVICCTCVGAGDPRLAKMQFRSILIDESTQATEPECMVPVVLGAKQLILVGDHCQLGPVVMCKKAAKAGLSQSLFERLVVLGIRPIRLQVQYRMHPALSAFPSNIFYEGSLQNGVTAADRVKKGFDFQWPQPDKPMFFYVTQGQEEIASSGTSYLNRTEAANVEKITTKLLKAGAKPDQIGIITPYEGQRSYLVQYMQFSGSLHTKLYQEVEIASVDAFQGREKDFIILSCVRANEHQGIGFLNDPRRLNVALTRARYGVIIVGNPKALSKQPLWNHLLNYYKEQKVLVEGPLNNLRESLMQFSKPRKLVNTINPGARFMTTAMYDAREAIIPGSVYDRSSQGRPSSMYFQTHDQIGMISAGPSHVAAMNIPIPFNLVMPPMPPPGYFGQANGPAAGRGTPKGKTGRGGRQKNRFGLPGPSQTNLPNSQASQDVASQPFSQGALTQGYISMSQPSQMSQPGLSQPELSQDSYLGDEFKSQIDVALSQDSTYQGERAYQHGGVTGLSQY",binding result,binds
